How the values were obtained:
[1] = biological target: AVR-PikE with non-cleavable C-terminal 6xHis tag (pOPINE) (Magnaporthe oryzae, UniProt C4B8B8 22-113); assay: SPR; settings: both partners purified
[2] = biological target: AVR-PikD with non-cleavable C-terminal 6xHis tag (pOPINE) (Magnaporthe oryzae, UniProt C4B8B8 22-113); assay: SPR; Biacore T200, 25°C, single-cycle kinetics; […]; 50 mM HEPES pH 7.5, 150 mM NaCl, 0.1% Tween 20; settings: both partners purified

B1: Pikp-HMA domain (HMA integrated domain of the rice NLR Pikp-1) (domain or fragment)
chain: GLKQKIVIKVAMEGNNCRSKAMALVASTGGVDSVALVGDLRDKIEVVGYGIDPIKLISALRKKVGDAELLQVS
notes: also called Pikp1-HMA; Pikp-1 HMA; not shown: 6xHis+SUMO, N-terminal, cleaved
[1]
  Kd: 367 ± 41 nM
[2]
  Kd: 29 ± 3.5 nM

— paper PMC4547098 (eLife, 2015)
